Earlier results on one substance are cited in article PMC8189991.

The data set addresses Asp96 (UniProt position 109, PLLLLDLALLV). Description: IR.

As to “Bacteriorhodopsin (Halobacterium salinarum (not stated in the article; inferred))”, the pKa result is given as “above 12”.
